Source: the supplement of paper PMC10065799, “High-throughput profiling of sequence recognition by tyrosine kinases and SH2 domains using bacterial peptide display” (eLife, 2023)

Columns and labels:
Fes = Fes (UniProt P07332); test: phosphorylation enrichment, bacterial display (enrichment ratio); higher = better substrate or ligand; peptides without Tyr show the background
Hck = Hck (UniProt P08631); test: as above
AncSZ = test: as above
FGFR1 = FGFR1 (UniProt P11362); test: as above
MERTK = MERTK (UniProt Q12866); test: as above
c-Src = test: as above
Fer (mouse) = test: as above
EPHB1 = EPHB1 (UniProt P54762); test: as above
Jak2 = Jak2 (UniProt O60674); test: as above
c-Abl (mouse) = test: as above
FGFR3 = FGFR3 (UniProt P22607); test: as above
Fyn = Fyn (UniProt P06241); test: as above
EPHB2 = EPHB2 (UniProt P29323); test: as above
c-Src SH2 = test: SH2 binding enrichment of the phosphorylated peptide, bacterial display (enrichment ratio); higher = better substrate or ligand; peptides without Tyr show the background
SHP2-C SH2 = test: as above
Grb2 SH2 = Grb2 SH2 (UniProt P62993); test: as above
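For SH2 binding enrichment of the phosphorylated peptide, bacterial display in this document: peptide library displayed on the E. coli surface as eCPX fusions, selected cells deep-sequenced, score is each peptide's frequency after selection divided by its frequency in the input.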
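For phosphorylation enrichment, bacterial display in this document: 11-residue human phosphosite peptides and single-mutation variants displayed on the E. coli surface, counted by deep sequencing, each peptide's frequency after selection divided by its frequency in the unselected input library; frequency after pTyr selection over input frequency; kinase dosed for 20-30% of maximal phosphorylation in three min.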

Fyn, sequence (P06241 whole entry, looked up): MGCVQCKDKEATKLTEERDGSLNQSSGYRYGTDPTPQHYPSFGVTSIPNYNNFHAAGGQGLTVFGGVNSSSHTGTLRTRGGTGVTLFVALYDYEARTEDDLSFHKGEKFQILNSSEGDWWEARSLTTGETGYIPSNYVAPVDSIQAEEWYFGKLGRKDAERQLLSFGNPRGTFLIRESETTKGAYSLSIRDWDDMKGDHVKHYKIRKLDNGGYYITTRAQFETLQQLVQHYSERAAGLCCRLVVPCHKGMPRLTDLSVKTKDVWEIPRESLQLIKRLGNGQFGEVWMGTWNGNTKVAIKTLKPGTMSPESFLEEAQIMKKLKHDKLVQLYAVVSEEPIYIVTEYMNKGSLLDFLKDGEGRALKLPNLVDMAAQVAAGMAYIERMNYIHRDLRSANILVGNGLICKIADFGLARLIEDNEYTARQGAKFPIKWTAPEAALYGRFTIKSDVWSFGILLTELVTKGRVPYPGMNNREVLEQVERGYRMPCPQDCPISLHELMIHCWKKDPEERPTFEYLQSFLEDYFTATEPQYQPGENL
MERTK, sequence (Q12866 whole entry, looked up): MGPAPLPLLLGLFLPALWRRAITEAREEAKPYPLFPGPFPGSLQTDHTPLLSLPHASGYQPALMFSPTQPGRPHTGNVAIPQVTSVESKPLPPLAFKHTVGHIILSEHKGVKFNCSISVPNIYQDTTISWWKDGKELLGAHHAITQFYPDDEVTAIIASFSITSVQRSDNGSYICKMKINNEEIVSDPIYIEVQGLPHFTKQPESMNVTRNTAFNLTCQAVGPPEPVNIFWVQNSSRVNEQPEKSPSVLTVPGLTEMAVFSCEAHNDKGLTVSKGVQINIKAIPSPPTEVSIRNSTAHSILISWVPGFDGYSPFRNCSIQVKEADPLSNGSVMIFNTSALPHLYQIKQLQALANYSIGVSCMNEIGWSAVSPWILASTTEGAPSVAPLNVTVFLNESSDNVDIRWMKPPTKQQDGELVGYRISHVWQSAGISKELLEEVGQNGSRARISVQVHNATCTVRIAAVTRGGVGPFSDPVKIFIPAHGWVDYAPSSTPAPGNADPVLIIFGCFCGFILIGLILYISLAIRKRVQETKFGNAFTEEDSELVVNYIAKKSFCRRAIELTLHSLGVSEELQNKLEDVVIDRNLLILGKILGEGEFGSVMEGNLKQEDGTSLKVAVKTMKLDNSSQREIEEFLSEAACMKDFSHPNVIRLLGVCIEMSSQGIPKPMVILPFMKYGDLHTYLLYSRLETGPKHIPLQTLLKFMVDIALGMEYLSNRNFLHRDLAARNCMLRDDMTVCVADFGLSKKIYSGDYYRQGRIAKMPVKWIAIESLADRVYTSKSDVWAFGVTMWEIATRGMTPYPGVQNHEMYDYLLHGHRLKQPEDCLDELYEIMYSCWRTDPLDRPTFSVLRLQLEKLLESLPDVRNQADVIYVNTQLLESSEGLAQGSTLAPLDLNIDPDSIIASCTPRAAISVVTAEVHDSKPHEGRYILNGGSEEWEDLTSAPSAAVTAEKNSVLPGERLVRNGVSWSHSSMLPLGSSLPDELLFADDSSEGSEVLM
EPHB2, sequence (P29323 whole entry, looked up): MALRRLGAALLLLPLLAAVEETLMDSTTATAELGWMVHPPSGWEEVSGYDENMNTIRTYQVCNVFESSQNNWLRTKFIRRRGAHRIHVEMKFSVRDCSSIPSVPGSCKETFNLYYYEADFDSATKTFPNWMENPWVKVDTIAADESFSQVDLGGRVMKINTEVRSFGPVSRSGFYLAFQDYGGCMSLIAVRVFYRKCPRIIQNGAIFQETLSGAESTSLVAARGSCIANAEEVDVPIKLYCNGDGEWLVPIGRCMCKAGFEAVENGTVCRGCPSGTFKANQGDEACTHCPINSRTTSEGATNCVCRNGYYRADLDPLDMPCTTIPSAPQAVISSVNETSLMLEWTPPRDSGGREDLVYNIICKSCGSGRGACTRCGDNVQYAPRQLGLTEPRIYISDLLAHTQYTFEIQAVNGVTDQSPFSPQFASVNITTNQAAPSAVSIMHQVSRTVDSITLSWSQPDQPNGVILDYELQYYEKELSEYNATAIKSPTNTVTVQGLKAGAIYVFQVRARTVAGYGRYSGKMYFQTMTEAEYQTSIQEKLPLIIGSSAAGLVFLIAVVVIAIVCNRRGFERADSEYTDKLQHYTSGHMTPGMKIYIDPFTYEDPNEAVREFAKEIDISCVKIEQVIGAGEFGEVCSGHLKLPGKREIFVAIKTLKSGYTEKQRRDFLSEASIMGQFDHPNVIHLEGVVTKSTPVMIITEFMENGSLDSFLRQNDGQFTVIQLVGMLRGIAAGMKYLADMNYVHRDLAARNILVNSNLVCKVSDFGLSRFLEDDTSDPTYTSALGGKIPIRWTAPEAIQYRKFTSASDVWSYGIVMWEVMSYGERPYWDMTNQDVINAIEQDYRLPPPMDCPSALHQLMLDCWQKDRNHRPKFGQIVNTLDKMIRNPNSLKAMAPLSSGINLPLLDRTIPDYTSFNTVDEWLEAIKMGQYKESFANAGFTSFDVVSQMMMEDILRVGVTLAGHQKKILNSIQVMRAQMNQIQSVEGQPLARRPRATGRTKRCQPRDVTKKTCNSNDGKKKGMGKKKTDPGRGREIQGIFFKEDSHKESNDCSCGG
Fes, sequence (P07332 whole entry, looked up): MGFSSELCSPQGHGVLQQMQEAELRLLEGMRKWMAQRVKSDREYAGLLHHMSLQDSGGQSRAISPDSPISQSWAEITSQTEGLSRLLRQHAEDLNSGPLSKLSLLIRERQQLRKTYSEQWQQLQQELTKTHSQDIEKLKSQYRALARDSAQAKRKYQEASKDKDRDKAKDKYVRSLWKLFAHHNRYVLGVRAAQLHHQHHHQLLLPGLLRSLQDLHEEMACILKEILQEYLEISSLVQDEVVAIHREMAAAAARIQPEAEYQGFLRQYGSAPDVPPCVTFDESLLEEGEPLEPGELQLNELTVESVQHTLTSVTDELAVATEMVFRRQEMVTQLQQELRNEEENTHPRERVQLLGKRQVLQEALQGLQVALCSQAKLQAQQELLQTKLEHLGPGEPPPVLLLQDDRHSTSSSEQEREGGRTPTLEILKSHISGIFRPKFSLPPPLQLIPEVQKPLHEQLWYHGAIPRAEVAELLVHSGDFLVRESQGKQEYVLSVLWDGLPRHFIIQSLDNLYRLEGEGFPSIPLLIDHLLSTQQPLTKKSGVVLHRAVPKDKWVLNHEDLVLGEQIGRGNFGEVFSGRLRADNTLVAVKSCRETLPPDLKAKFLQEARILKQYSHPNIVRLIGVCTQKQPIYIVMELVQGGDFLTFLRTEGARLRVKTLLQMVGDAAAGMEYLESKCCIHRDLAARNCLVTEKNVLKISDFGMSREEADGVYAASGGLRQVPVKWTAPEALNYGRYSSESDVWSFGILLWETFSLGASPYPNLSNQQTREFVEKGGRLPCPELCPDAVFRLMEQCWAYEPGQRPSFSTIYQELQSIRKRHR
Jak2, sequence (O60674 whole entry, looked up): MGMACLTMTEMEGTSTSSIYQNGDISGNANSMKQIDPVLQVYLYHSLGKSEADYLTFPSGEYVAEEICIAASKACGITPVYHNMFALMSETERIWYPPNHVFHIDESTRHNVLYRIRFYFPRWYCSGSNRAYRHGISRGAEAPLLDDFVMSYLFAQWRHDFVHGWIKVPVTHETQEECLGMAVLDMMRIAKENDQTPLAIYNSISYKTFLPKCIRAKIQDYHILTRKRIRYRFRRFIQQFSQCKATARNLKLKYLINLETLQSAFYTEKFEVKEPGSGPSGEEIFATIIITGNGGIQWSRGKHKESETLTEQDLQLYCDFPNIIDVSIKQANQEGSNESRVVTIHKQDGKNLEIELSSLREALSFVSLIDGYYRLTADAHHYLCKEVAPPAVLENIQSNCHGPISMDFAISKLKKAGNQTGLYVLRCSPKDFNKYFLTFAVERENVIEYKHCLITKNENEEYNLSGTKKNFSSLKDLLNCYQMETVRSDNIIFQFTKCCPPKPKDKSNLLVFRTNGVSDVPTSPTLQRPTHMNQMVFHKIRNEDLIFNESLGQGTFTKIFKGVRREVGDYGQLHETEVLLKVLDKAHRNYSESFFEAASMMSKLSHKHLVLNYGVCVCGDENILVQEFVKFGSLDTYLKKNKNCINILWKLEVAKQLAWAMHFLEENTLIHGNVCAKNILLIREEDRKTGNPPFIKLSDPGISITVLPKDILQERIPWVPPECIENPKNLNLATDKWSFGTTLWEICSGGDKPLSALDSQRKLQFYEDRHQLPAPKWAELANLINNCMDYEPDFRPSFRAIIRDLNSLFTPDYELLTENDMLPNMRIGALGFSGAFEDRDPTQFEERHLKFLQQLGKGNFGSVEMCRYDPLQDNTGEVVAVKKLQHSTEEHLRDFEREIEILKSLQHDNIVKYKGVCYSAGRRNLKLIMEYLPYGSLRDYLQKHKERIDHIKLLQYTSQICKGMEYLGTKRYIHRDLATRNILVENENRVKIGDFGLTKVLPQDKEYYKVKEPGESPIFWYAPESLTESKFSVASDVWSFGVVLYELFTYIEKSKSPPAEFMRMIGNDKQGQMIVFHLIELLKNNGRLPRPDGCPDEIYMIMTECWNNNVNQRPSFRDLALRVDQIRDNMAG
Hck, sequence (P08631 whole entry, looked up): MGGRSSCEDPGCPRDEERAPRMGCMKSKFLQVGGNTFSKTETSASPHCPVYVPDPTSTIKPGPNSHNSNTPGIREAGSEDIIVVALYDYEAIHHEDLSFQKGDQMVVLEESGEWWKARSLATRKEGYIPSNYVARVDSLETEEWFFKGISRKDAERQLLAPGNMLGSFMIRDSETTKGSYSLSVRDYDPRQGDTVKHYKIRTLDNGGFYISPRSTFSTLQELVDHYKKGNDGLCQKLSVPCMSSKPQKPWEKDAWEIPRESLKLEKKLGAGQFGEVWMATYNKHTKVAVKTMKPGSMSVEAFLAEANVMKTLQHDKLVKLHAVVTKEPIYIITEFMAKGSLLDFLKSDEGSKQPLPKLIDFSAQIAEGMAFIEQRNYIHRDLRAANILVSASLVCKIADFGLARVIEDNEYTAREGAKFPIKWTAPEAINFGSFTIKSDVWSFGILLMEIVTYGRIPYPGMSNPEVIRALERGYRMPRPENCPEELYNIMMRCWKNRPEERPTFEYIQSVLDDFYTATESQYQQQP

| Sequence | SH2 binding enrichment (c-Src SH2) | SH2 binding enrichment (SHP2-C SH2) | SH2 binding enrichment (Grb2 SH2) | phosphorylation enrichment (Fes) | phosphorylation enrichment (Hck) | phosphorylation enrichment (AncSZ) | phosphorylation enrichment (FGFR1) | phosphorylation enrichment (MERTK) | phosphorylation enrichment (c-Src) | phosphorylation enrichment (Fer (mouse)) | phosphorylation enrichment (EPHB1) | phosphorylation enrichment (Jak2) | phosphorylation enrichment (c-Abl (mouse)) | phosphorylation enrichment (FGFR3) | phosphorylation enrichment (Fyn) | phosphorylation enrichment (EPHB2) |
| --- | --- | --- | --- | --- | --- | --- | --- | --- | --- | --- | --- | --- | --- | --- | --- | --- |
| NIFSFYLSRDP [CTSD_Y232] | 1.09 | 1.64 | 1.52 | 1.14 | 0.461 | 0.85 | 0.348 | 0.333 | 0.409 | 0.528 | 0.551 | 0.951 | 0.619 | 0.697 | 0.4 | 0.506 |
| NKFTTYLPRLP [C9orf24_Y126_YF] | 0.824 | 1.02 | 0.927 | 0.784 | 0.507 | 0.568 | 0.47 | 0.42 | 0.425 | 0.36 | 0.437 | 0.666 | 0.482 | 0.503 | 0.477 | 0.445 |
| NLNGKYNKPRA [ANGPTL3_Y417] | 1.18 | 0.875 | 1.3 | 0.613 | 0.362 | 0.51 | 0.344 | 0.471 | 0.334 | 0.372 | 0.294 | 0.8 | 0.696 | 0.525 | 0.659 | 0.353 |
| NRLTDYFELLL [BBS10_Y536_P539L_YF] | 0.834 | 1.29 | 1.33 | 1.31 | 0.509 | 1.36 | 7.17 | 0.442 | 0.619 | 0.534 | 0.654 | 1.35 | 0.765 | 5 | 0.622 | 0.633 |
| NSIGNYYKPWF [DHCR24_Y299] | 1.09 | 2.39 | 1.14 | 0.774 | 1 | 1.14 | 5.3 | 8.27 | 0.69 | 0.52 | 14.5 | 9.63 | 14.1 | 4.33 | 0.568 | 15.2 |
| NVADHYRVFKP [ATP6V0D2_Y271_G272R_YF] | 0.397 | 0.624 | 0.842 | 0.616 | 0.418 | 0.708 | 0.459 | 0.644 | 0.471 | 0.404 | 0.404 | 0.582 | 0.686 | 0.608 | 0.391 | 0.361 |
| NVKGIYAVGDV [GSR_Y371] | 0.533 | 0.738 | 0.741 | 0.865 | 3.55 | 0.714 | 0.521 | 1.31 | 3.73 | 0.572 | 0.619 | 0.66 | 1.44 | 0.574 | 4.37 | 0.564 |
| PADQAYSWFQH [NDST1_Y711_R709Q_YF] | 0.891 | 1.01 | 0.648 | 2.91 | 1.36 | 1.7 | 5.17 | 7.11 | 2.41 | 26.6 | 1.3 | 0.855 | 0.58 | 4.33 | 1.38 | 0.926 |
| PADRAYSWFQH [NDST1_Y711_YF] | 0.976 | 0.572 | 0.949 | 1.43 | 0.466 | 1.14 | 1.84 | 4.22 | 0.868 | 17.8 | 0.543 | 1.03 | 0.645 | 1.14 | 0.833 | 0.67 |
| PATYTYDEYKK [COL8A2_Y648] | 1.48 | 0.799 | 0.551 | 1.3 | 1.55 | 1.43 | 0.749 | 1.02 | 3.07 | 0.558 | 0.745 | 0.868 | 1.38 | 0.728 | 1.67 | 0.883 |
| PDGVEYLKNNP [GRIN3A_Y831_D835N] | 0.348 | 0.849 | 0.982 | 1.05 | 0.664 | 1.21 | 0.503 | 0.546 | 0.539 | 0.499 | 0.527 | 1.31 | 0.748 | 0.769 | 0.543 | 0.452 |

Now from value to sequence, other results behind:

| SH2 binding enrichment (c-Src SH2) | SH2 binding enrichment (SHP2-C SH2) | SH2 binding enrichment (Grb2 SH2) | Sequence | phosphorylation enrichment (Fes) | phosphorylation enrichment (Hck) | phosphorylation enrichment (AncSZ) | phosphorylation enrichment (FGFR1) | phosphorylation enrichment (MERTK) | phosphorylation enrichment (c-Src) | phosphorylation enrichment (Fer (mouse)) | phosphorylation enrichment (EPHB1) | phosphorylation enrichment (Jak2) | phosphorylation enrichment (c-Abl (mouse)) | phosphorylation enrichment (FGFR3) | phosphorylation enrichment (Fyn) | phosphorylation enrichment (EPHB2) |
| --- | --- | --- | --- | --- | --- | --- | --- | --- | --- | --- | --- | --- | --- | --- | --- | --- |
| 0.672 | 0.822 | 1.03 | NPQKSYLIRLF [WAS_Y83_F84L_YF] | 0.957 | 0.407 | 0.768 | 0.439 | 0.413 | 0.38 | 0.448 | 0.462 | 0.681 | 0.523 | 0.696 | 0.398 | 0.484 |
| 0.485 | 0.43 | 0.835 | NSNSDYVDVLP [SH2D1B_Y127] | 1.33 | 0.735 | 2.46 | 3.73 | 0.54 | 0.598 | 0.884 | 4.08 | 1.11 | 0.743 | 2.95 | 0.628 | 2.82 |
| 0.833 | 0.546 | 0.699 | PANMVYSTVEI [SLAMF7_Y304_T302M] | 1.77 | 9.3 | 1.38 | 2.6 | 8.74 | 8.24 | 20.3 | 3.27 | 0.659 | 6.82 | 2.26 | 10.6 | 3.32 |
| 0.487 | 1.21 | 0.767 | PESIMYWKFTT [NTRK3_Y744_R745W] | 2.81 | 1.96 | 2.52 | 1.09 | 0.851 | 3.1 | 1.53 | 0.92 | 2.76 | 2.36 | 1.55 | 1.85 | 1.22 |
| 0.548 | 0.633 | 0.926 | PEVRRCVLPLN [RPE65_Y368_Y368C] | 1.14 | 0.48 | 0.906 | 0.495 | 0.458 | 0.586 | 0.644 | 0.673 | 0.927 | 0.871 | 0.774 | 0.366 | 0.487 |
